{"source": "patent US20230331817A1", "about": "(The Regents of the University of California, priority 2020, published 2023)", "key": {"human plasmin": {"target": "T1, human plasmin (Homo sapiens, UniProt P00747)", "T1 construct": "purchased Hematologic Technologies Inc (Essex Junction, VT)", "T1 sequence (P00747 97-580 limits assumed)": "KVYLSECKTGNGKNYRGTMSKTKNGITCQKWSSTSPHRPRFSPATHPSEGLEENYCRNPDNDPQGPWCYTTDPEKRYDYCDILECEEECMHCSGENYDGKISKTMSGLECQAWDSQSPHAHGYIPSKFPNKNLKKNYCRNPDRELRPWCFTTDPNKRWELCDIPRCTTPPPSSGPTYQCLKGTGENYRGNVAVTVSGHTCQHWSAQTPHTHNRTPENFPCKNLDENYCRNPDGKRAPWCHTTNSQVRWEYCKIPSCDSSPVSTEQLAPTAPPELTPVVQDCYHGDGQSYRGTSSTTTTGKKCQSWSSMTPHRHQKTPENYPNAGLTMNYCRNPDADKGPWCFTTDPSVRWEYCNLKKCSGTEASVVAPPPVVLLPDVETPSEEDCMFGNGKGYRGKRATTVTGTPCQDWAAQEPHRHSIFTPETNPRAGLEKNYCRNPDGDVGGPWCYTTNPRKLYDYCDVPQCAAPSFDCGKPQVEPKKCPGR", "T1 sequence (P00747 581-810 limits assumed)": "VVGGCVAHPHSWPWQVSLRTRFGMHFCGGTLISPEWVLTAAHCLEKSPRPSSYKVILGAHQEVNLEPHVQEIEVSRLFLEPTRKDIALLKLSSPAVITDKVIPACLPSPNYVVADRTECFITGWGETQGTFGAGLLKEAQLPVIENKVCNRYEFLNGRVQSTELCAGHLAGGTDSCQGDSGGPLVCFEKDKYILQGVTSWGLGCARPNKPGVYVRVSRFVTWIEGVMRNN", "assay": "Protease inhibition assay, plasmin (S-2251 amidolytic activity)", "type": "biochemical", "settings": "3 nM plasmin; 1 hour at room temperature; tight-binding equation", "description": "(§1) All reactions were carried out in TBS, pH 7.5 (50 mM Tris-HCL, pH 7.5, containing 100 mM NaCl), containing 0.1 mg bovine serum albumin/ml (TBS/BSA) and 2 mM Ca2+(TBS/BSA/Ca2+, pH 7.5). […] The inhibition constant, K* was determined using the nonlinear regression data analysis program Grafit.\n(§2) Ki values were obtained by correcting for the effect of substrate according to Beith (38), using equation 2, where (S) is substrate concentration and KM is specific for each enzyme.\nReactions were carried out in TBS/BSA and 2 mM calcium. […] Synthetic substrate for plasmin was then added to a final concentration of 1 KM, and residual amidolytic activity was measured in a kinetic microplate reader (Molecular Devices)."}, "FVIIa/sTF": {"target": "T2, FVIIa/sTF (Homo sapiens, UniProt P08709)", "T2 construct": "human factor VIIa (FVIIa) was prepared as described previously (34)", "T2 sequence (P08709 213-466 limits assumed)": "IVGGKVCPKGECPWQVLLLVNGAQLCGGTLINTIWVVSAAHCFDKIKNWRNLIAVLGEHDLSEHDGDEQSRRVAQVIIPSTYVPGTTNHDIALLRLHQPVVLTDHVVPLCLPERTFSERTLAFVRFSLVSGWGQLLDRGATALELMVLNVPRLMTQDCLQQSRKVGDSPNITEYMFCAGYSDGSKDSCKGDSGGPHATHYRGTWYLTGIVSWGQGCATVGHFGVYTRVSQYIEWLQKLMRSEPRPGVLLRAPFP", "T2 sequence (P08709 61-212 limits assumed)": "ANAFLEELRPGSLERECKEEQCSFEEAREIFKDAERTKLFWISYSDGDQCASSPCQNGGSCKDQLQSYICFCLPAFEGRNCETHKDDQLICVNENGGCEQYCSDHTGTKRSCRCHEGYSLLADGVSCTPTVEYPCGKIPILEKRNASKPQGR", "T2 sequence (P13726 33-251 partner limits assumed)": "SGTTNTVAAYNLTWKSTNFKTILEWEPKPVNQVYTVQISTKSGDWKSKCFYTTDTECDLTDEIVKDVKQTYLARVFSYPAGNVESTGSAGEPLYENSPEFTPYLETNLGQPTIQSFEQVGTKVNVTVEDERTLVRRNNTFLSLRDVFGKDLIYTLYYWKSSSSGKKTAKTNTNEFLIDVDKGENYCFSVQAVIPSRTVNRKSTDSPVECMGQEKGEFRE", "assay": "Protease inhibition assay, FVIIa/soluble tissue factor", "type": "biochemical", "settings": "20 nM FVIIa/sTF; read-out: Ki for Factor VIIa/soluble tissue factor", "description": "as §1, §2"}, "FXa": {"target": "T3, FXa (Homo sapiens, UniProt P00742)", "T3 construct": "FXa, factor Xa", "T3 sequence (P00742 235-488 limits assumed)": "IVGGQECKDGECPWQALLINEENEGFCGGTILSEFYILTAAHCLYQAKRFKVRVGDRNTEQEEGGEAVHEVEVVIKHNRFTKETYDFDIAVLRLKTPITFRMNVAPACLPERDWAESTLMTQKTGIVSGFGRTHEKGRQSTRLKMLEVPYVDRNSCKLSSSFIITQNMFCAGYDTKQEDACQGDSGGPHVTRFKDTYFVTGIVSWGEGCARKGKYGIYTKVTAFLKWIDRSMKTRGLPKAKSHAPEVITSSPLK", "T3 sequence (P00742 41-179 limits assumed)": "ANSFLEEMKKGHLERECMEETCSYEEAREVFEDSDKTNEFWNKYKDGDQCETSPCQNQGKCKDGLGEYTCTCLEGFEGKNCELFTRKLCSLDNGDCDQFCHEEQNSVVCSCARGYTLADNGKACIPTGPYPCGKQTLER", "assay": "Protease inhibition assay, factor Xa", "type": "biochemical", "settings": "1 nM FXa", "description": "FIG. 2. Data from Equilibrium inhibition constants (Ki) of KD1Y11T/R15KL17R-KT with plasmin, FXIa, kallikrein (KLK), FVIIa/sTF and FXa. Percent activity of 3 nM human plasmin remaining in the presence of various concentrations (0.05 to 19.2 nM) of KD1Y11T/R15KL17R-KT (●) or BPTI (◯). And percent activity of 1 nM human FXIa (▴), 1 nM human kallikrein (●), 20 nM human FVIIa/sTF (Δ) and 1 nM FXa (♦) remaining in the presence of various concentrations (1 μM to 30 μM) of KD1Y11T/R15KL17R-KT.\nKi values for each inhibitor were calculated using the tight binding equations."}, "HUVEC [1]": {"test_system": "HUVEC", "type": "cell-based, human", "description": "(§3) Resazurin reduction assay (Fisher Scientific) was used to evaluate the potential cytotoxicity of antifibrinolytic agents toward primary human endothelial cells and skin fibroblasts. Phosphate buffer that was used to dissolve the samples was included as negative control. The assay is based on reduction of the non-fluorescent dye resazurin, to the highly fluorescent resorufin by viable cells. […] Briefly, cells in 96-well cell culture plates were treated with different concentrations of antifibrinolytic compounds (as described above). After 24 hours resazurin reagent was added to each well and the plates were incubated at 37° C. for 4 hours. Fluorescence was measured by the FLUOstar Omega Microplate Reader (BMG Labtech) using an excitation wavelength of 544 nm and an emission wavelength of 590 nm. Each assay was done in duplicate, with three replicates each. The viability was evaluated based on comparison with untreated cells."}, "[2]": {"test_system": "primary human dermal skin fibroblasts", "assay": "Resazurin reduction (alamarBlue) viability assay, skin fibroblasts", "type": "cell-based", "description": "as §3"}, "HUVEC [3]": {"test_system": "HUVEC", "assay": "Caspase 3/7 assay, HUVEC", "type": "cell-based, human", "settings": "24 hours; 30 μM KD1TM, 30 μM BPTI, 60 mM EACA, 30 mM TXA", "description": "The influence of antifibrinolytic agents on apoptosis in cells was detected using the Caspase-Glo 3/7 Assay kit (Promega). Caspase 3 and 7 are activated in cells that undergo apoptosis. The assay provides a luminogenic substrate for caspase 3 and 7. Enzymatic activity leads to luminescence, which is proportional to the amount of caspase activity present. Cells were seeded in 96-well plates and treated with antifibrinolytic agents or phosphate buffer (solvent control). Taxol was included as positive control. After 24 hours of treatment, caspase reagent was added to each well, mixed and incubated for 1 hour at room temperature. Luminescence was measured using the FLUOstar Omega Microplate Reader (BMG Labtech)."}, "HUVEC [4]": {"test_system": "HUVEC", "settings": "24 hours; 30 μM KD1TM, 30 μM BPTI, 60 mM EACA, 30 mM TXA", "excerpt": "(§4) Primary human pooled umbilical vein endothelial cells (HUVEC) were obtained from ATCC. The cells were maintained in Vascular Cell Basal Medium (ATCC), supplemented with the Endothelial Cell Growth Kit-BBE (ATCC) and Penicillin-Streptomycin-Amphotericin B (ATCC). Primary human dermal skin fibroblasts were obtained from LONZA and maintained in Fibroblast Basal Medium (FBMTM, LONZA), supplemented with a cocktail of growth factors, fetal bovine serum and antibiotics (FGMTM-2 SingleQuots™, LONZA). All cells were maintained in a humidified 5% C02 atmosphere at 37° C. and were passaged once they reached 80% confluence. All experiments were performed with cells in the logarithmic growth phase.\n(§5) For toxicity studies, cells were seeded into 96-well or 24-well cell culture plates at 3,500 cells/cm2 and were used for experiments once they reached 80% confluence.\n(§6) Cell toxicity and cell death was evaluated with the CellTox™ Green Cytotoxicity Assay (Promega). This assay measures changes in membrane integrity that occur as a result of cell death. The dye used in the system is excluded from viable cells but binds to DNA in compromised cells, which results in a fluorescent signal. We measured cell death in HUVEC and primary fibroblasts treated with antifibrinolytic agents at 4 concentrations (as indicated above) with triplicates per concentration in 24-well plates after 24 hours of exposure. Hoechst (Thermo Fisher Scientific) was used to stain all nuclei. Images of cells were captured using an inverted microscope (Nicon; Edipse T2000 TE). Green fluorescent cells (FITC filter) and Hoechst stained cells (DAPI filter) were counted using Image J software."}, "[5]": {"test_system": "primary human dermal skin fibroblasts", "settings": "24 hours; 30 μM KD1TM, 30 μM BPTI, 60 mM EACA, 30 mM TXA", "excerpt": "as §4, §5, §6"}, "[6]": {"settings": "human, in vivo; cited from earlier work"}, "[7]": {"settings": "in vivo; cited from earlier work"}, "[8]": {"test_system": "mouse tail bleeding model", "settings": "cited from earlier work"}}, "note": "Read-outs that look alike come from different tables or passages of the source.", "data": [{"substance": "aprotinin", "values": [{"measurement": "Ki", "setting": "human plasmin", "value": "0.5 ± 0.1", "unit": "nM"}, {"measurement": "Ki", "setting": "FVIIa/sTF", "value": "> 3000", "unit": "nM"}, {"measurement": "Ki", "setting": "FXa", "value": "> 3000", "unit": "nM"}, {"measurement": "HUVEC viability (FIG. 4)", "setting": "HUVEC [1]", "value": "not significantly different from the untreated cells"}, {"measurement": "Fibroblast cell viability (FIG. 5)", "setting": "[2]", "value": "not significantly different from the untreated cells"}, {"measurement": "Apoptosis, caspase-3/7 activity, HUVEC (FIG. 6)", "setting": "HUVEC [3]", "value": "did not induce apoptosis"}, {"measurement": "HUVEC cytotoxicity, CellTox green (FIG. 7)", "setting": "HUVEC [4]", "value": "did not induce toxicity"}, {"measurement": "Fibroblasts cytotoxicity, CellTox green (FIG. 8)", "setting": "[5]", "value": "did not induce toxicity"}, {"measurement": "half-life", "setting": "[6]", "value": "~2", "unit": "h"}, {"measurement": "half-life", "setting": "[7]", "value": "~1.17", "unit": "h"}]}, {"substance": "Textilinin-1 [Q8008]", "values": [{"measurement": "Reduction of blood loss", "setting": "[8]", "value": "as effective as aprotinin in reducing blood loss"}]}]}
